Assay results taken from patent US20100080806A1 (INSTITUTE OF BASIC MEDICAL SCIENCES OF CHINESE ACADEMY OF …, published 2010).

Assays:
[1] = molecular target: T1, recombinant human DR4 extracellular domain protein expressed in E. coli (human, UniProt O00220 24-239); experiment: ELISA, plate coated with recombinant DR4 extracellular domain
T1 construct: extracellular domain; also called death receptor 4; TRAIL-R1
Method: (§1) ELISA plates (Costar, USA) were coated with recombinant human DR4 or DR5 extracellular domain protein expressed in E. coli over night, blocked with 5% nonfat milk at room temperature for two hours. […] The absorbency at 492 nm was measured on a microtiter reader of enzyme-labelled machine, Wellscan MK3 (Thermo Labsystems, Finland).

[2] = molecular target: T2, recombinant human DR5 extracellular domain protein expressed in E. coli (human, UniProt O14763 56-210); experiment: ELISA on plate-coated recombinant DR5 extracellular domain, single-site fit (GraphPad)
T2 construct: extracellular domain; also called death receptor 5; TRAIL-R2
Method: as §1

T1 sequence (O00220 24-239): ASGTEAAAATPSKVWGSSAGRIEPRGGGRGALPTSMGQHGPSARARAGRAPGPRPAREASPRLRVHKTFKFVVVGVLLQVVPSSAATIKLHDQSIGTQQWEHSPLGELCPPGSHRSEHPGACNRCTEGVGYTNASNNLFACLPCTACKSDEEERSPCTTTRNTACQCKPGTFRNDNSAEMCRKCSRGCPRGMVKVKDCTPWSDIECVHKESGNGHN

binding result [1]: no binding
Kd [2]: 0.3 nM
B1: monoclonal antibody AD5-10 against human TRAIL receptor DR5 (antibody, IgG3, V domains shown)
VH: QIQLVQSGPELKKPGETVKISCKASGYTFTDFSMNWVKQAPGKGLKWMGWINTETGEPTYADDFKGRFALSMETSASTAYLQINNLKNEDTATYFCVRIDYWGQGTTLTVSS
VL: DVVMTQTPLSLPVSLGDQASISCRSSQSLVHSNGNTYLHWYLQKPGQSPKLLIYKVSNRFSGVPDRFSGSGSGTDFTLKISRVEAEDLGVYFCFQSTHVPHTFGGGTKLEIKR
notes: Murine hybridoma antibody (CGMCC 1192), subtype IgG3 kappa; also called anti-human TRAIL receptor DR5 mAb; mAb DR5
